# Legend:
# [1] = tested on: PEX39–PEX7 complex and PTS2–GFP cargo; assay: Bead-binding assay: recruitment of PTS2–GFP to PEX7- or PEX39-coated beads (Fig. 7b,c); set-up: species or system yeast (S. cerevisiae)
# Excerpt: (§1) Cysteine-containing peptides were covalently conjugated to thiol-reactive SulfoLink coupling resin (Thermo Fisher, catalogue number 20401) according to the manufacturer’s instructions. The prepared beads were then mixed with Assay Buffer containing the fluorescently labelled protein as well as additional components indicated in the text, and the resulting bead suspensions were transferred to a 384-well glass-bottomed plate (Cellvis, P384-1.5H-N). GST-fusion proteins were instead mixed with glutathione agarose 4B (Prometheus, 20-543) in Assay Buffer containing the fluorescently labelled protein and additional components indicated in the text; the resulting bead suspensions were then transferred to a glass-bottomed plate as above. The plates were incubated at RT for the durations specified in the text and directly imaged on the spinning-disk confocal platform described earlier for peroxisomal import reactions in Xenopus egg extract. Note that imaging the beads directly in the binding reaction preserves the equilibrium and thereby allows even weak interactions to be detected. Fluorescence was collected through a Nikon ×10 0.45 NA Plan Apo air objective, and images were acquired using the Nikon NIS-Elements software and a 16-bit digitizer without binning. Imaging parameters were configured to maximize the SNR while avoiding saturation. […]
# [2] = tested on: PEX5–GFP influx into YG hydrogel; assay: Influx of PEX5–GFP into YG hydrogel in the presence of PEX39 (Fig. 6h); type: biochemical, Xenopus laevis
# Procedure: Fig. 6 PEX39 can extract PEX7 from the YG phase. a, YG hydrogels were prepared in a glass-bottomed dish and pre-equilibrated with PEX7–GFP. PEX39 was then added to the buffer and a point-scanning confocal microscope was used to follow the PEX7–GFP fluorescence over time. b, PEX7–GFP signal in the gel over time at the indicated molar ratios of wild-type PEX39 (relative to PEX7). […] The effect of PEX39 on the influx of PEX7–GFP into the gel was then assessed using a point-scanning confocal microscope. g, PEX7–GFP influx in the presence of the indicated molar ratios of wild-type PEX39 (relative to PEX7) with or without a fourfold excess of PTS2 peptide and either PEX5S or PEX5-21. […]
# A solution of the purified wild-type YG-domain polypeptide (or the variant lacking the KPWE motif) was concentrated to 2 mM in 50 mM HEPES·NaOH pH 7.8 at RT, 2 M urea and 2 mM TCEP. […] Fluorescence was excited through a 405/488/561/647 quad-band dichroic (Chroma), using a 488-nm solid-state laser (Coherent) and a galvano scanner. […]
# PEX5–GFP in YG hydrogel = assay: YG hydrogel release assay, PEX5–GFP (Fig. 6d); type: biochemical; conditions: fourfold excess of PEX39
# Procedure: (§2) YG hydrogels were prepared in a glass-bottomed plate as described earlier and equilibrated for 3 h at RT in Assay Buffer containing 0.5 µM PEX7–GFP or PEX5–GFP with or without PTS2 peptide and receptor at the concentrations specified in the text. Following the initial incubation, the hydrogels were imaged on a Nikon A1R point-scanning confocal system, as described earlier, with a Nikon ×10 0.45 NA Plan Apo air objective, a pinhole dilated to 1.4 Airy units and a pixel size of 2 µm. A solution of purified PEX39 was then spiked into each reaction and the hydrogels imaged every 2 min for an additional 1 h at RT.
# (§3) For the PEX7-release assay from YG hydrogels, the total fluorescence within a 30-µm-wide band in the gel extending for 150 µm from the gel edge into the gel was measured at each time point. This distance was sufficient to fully encompass the permeation front of each fluorescent species. The resulting values were then normalized to the total fluorescence inside the gel at the start of the experiment and plotted as a function of time.
# PEX7–GFP in YG hydrogel = assay: YG hydrogel release assay, PEX7–GFP (Fig. 6a-c,e); type: biochemical, yeast
# Procedure: as §2, §3
# yeast PEX7 = assay: Bead-binding assay: PEX39 and PEX7 (Fig. 5c, Extended Data Fig. 9a); set-up: species or system yeast (S. cerevisiae); conditions: PEX39-coated beads
# Excerpt: as §1
# [3] = tested on: PEX7–receptor–cargo complex on PEX39-coated beads; assay: Bead-binding assay: recruitment of PEX7–receptor–cargo complex to PEX39-coated beads (Fig. 7d, 8a); set-up: species or system yeast (S. cerevisiae); conditions: no peptide, Fig. 7d
# Excerpt: Cysteine-containing peptides were covalently conjugated to thiol-reactive SulfoLink coupling resin (Thermo Fisher, catalogue number 20401) according to the manufacturer’s instructions. The prepared beads were then mixed with Assay Buffer containing the fluorescently labelled protein as well as additional components indicated in the text, and the resulting bead suspensions were transferred to a 384-well glass-bottomed plate (Cellvis, P384-1.5H-N). GST-fusion proteins were instead mixed with glutathione agarose 4B (Prometheus, 20-543) in Assay Buffer containing the fluorescently labelled protein and additional components indicated in the text; the resulting bead suspensions were then transferred to a glass-bottomed plate as above. The plates were incubated at RT for the durations specified in the text and directly imaged on the spinning-disk confocal platform described earlier for peroxisomal import reactions in Xenopus egg extract. Note that imaging the beads directly in the binding reaction preserves the equilibrium and thereby allows even weak interactions to be detected. Fluorescence was collected through a Nikon ×10 0.45 NA Plan Apo air objective, and images were acquired using the Nikon NIS-Elements software and a 16-bit digitizer without binning. Imaging parameters were configured to maximize the SNR while avoiding saturation. Samples intended to be compared were imaged using identical acquisition settings.
molecule,measurement,setting,value
"PEX39 (WT): PEX39 from S. cerevisiae (GenBank accession no. NP_012546.4) (protein, left off: GST, N-terminal, cleaved) MAAGGELSYEELLDHILNNKPIPNIVEVPNVTLDEGLASTPSLRPRPRPWEGQLQHQSHQGSLDKPNISLDIDQESLEGMTSLTRLSECYDIQSKLQINDSDNDNDDNNNDNNKGDGNDDDNNTVTANPTAR",Recruitment of PTS2–GFP cargo to PEX39–PEX7,[1],PTS2–GFP cargo was indeed recruited to PEX7-coated beads in the presence of PEX39
same,Effect on influx of PEX5–GFP into YG hydrogel,[2],did not prevent the influx of PEX5–GFP
same,Extraction of PEX5–GFP from YG hydrogel,PEX5–GFP in YG hydrogel,unable to extract PEX5–GFP from the hydrogel
same,Extraction of PEX7–GFP from YG hydrogel,PEX7–GFP in YG hydrogel; PEX39 or mutants added to preloaded hydrogel,rapidly depleted PEX7–GFP from the hydrogel in a dose-dependent manner
same,"Extraction of PEX7–GFP from YG hydrogel, PEX5-21 complex",PEX7–GFP in YG hydrogel; with PTS2 peptide and PEX5-21,unable to efficiently extract PEX7–GFP
same,"Extraction of PEX7–GFP from YG hydrogel, PEX5S",PEX7–GFP in YG hydrogel; with PTS2 peptide and PEX5S,readily extracted
same,Recruitment / binding of PEX7 in words,yeast PEX7,could recruit PEX7–GFP
same,Recruitment of PEX7–PEX5-21–PTS2–GFP complex to PEX39-coated beads,[3],could be recruited to beads coated with wild-type PEX39
